From article PMC9604145

Biological target: Su(H)^wt-myc (Suppressor of Hairless, wildtype, pcDNA3.1) (D. melanogaster) (UniProt P28159)
Chain of UniProt P28159 (P28159 whole entry): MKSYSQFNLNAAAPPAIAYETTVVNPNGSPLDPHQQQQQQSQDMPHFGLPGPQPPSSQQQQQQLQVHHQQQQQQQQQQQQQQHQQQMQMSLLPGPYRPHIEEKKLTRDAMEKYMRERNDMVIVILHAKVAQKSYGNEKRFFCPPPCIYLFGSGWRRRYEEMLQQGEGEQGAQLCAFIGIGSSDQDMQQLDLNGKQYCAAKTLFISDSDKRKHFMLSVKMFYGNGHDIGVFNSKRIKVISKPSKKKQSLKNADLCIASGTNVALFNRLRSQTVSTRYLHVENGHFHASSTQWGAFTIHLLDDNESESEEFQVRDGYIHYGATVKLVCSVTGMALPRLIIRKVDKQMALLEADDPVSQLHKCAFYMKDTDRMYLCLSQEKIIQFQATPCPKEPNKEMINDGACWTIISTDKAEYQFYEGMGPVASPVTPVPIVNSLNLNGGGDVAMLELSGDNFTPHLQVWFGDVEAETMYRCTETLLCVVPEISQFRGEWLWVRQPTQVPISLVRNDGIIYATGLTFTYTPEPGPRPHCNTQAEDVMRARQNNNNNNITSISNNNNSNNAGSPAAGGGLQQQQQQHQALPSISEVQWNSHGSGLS

A Su(H)^wt-myc protein level (Western blot, relative to beta-tubulin) 0-6 h after cycloheximide in HeLa RBPJ^KO cells co-expressing ICN^RAMANK (% of the induced protein) of 70 was found for “ICN^RAMANK (pcDNA-ICN-RAMANK) (domain or fragment)” in this work.
